These results are taken from US20230287088A1 (BIONTECH, published 2023).

Where two headings read alike, the source gives them in different places.

In experiment [1] the target is T1, Human-Fc-tagged SARS-CoV2 S1 recombinant protein (Sino Biologicals) (SARS-CoV-2, UniProt P0DTC2 16-685).
Experiment [2] deals with T1, Human-Fc-tagged SARS-CoV2 S1 …. Kind of experiment: ELISA on coated S1-hFc, 0.85 µg/ml; rabbit antibody in B-cell supernatant.
Experiment [3] has as its target T2, Mouse-Fc-tagged SARS-CoV2 S1-RBD (Sino Biologicals) recombinant protein (SARS-CoV-2, UniProt P0DTC2 319-541).
T2 construct: domain: S1-RBD
Kind of experiment: ELISA on coated S1-RBD-mFc.

The target in experiment [4] is T2, Mouse-Fc-tagged SARS-CoV2 S1-RBD (Sino …). Kind of experiment: competition ELISA: blocks S1-RBD-mFc binding to coated ACE-2 ECD.
Experiment [5] deals with T3, His-tagged SARS-CoV S1-RBD (Sino Biologicals) (SARS-CoV, UniProt P59594 306-527).
T3 construct: domain: S1-RBD; Bought reagent
Briefly: ELISA, His-tagged SARS-CoV S1-RBD coated, anti-human Fc detection.

The target in experiment [6] is T2, Mouse-Fc-tagged SARS-CoV2 S1-RBD (Sino …). Briefly: SPR, S1-RBD-mFc captured via anti-mouse-Fc antibody, 1:1 model.
Experiment [7] shares this target. Briefly: SPR (Biacore T200), RBD-mFc captured via anti-mouse-Fc on CM5, 1:1 model.
The target in experiment [8] is T1, Human-Fc-tagged SARS-CoV2 S1 …. Briefly: ELISA on coated S1-hFc, 3 µg/ml; rabbit antibody in B-cell supernatant.
Experiment [9] has as its target T2, Mouse-Fc-tagged SARS-CoV2 S1-RBD (Sino …).
The target is the same in experiment [10]. Kind of experiment: ELISA on coated S1-RBD-mFc. This is another data set of the same source.
For experiment [11], the target named is T3, His-tagged SARS-CoV S1-RBD (Sino …). Kind of experiment: ELISA on coated His-tagged SARS-CoV S1-RBD [D00020 Figure 8A continued].
For experiment [12], the target named is T2, Mouse-Fc-tagged SARS-CoV2 S1-RBD (Sino …). This is another data set of the same source.

B1: P043.A.00109.B12 (antibody, V domains shown)
VH: QSLEESGGGLVKPEGSLTLTCKASGFDLNTYYYMCWVRQAPGKGLEWIACIATSDSGHTAYASWARGRFTISKTSSTTVTLQMTGLTAADTATYFCARGGRSVGDGVDLWGPGTLVTVSS
VL: DIVMTQTPASVEAAVGGTVTIKCQASQSISSWLAWYQQKPGQPPKLLIYDASDLASGVPSRFKGSGSGTEFTLTISDLESADAATYYCQSYLYVESGSHGFGFGGGTEVVVR
notes: also called 468; protein sample ID 468
For the molecule B1, the concentration for half-maximal inhibition (IC50) in experiment [1] was 18.1 ng/mL; in experiment [4], 21.6 ng/mL. The EC50 in [2] was 18 ng/mL; in experiment [3], 5.6 ng/mL.

B2: P043.A.00117.C08 (protein sample ID 469) (antibody, V domains shown)
VH: QSLEESGGGLVKPEGSLTLTCKASGFDLNTYYYMCWVRQAPGKGLEWIACIGTSDSGHTAYASWARGRFTISKTSSTTVTLQMTGLTAADTATYFCARGGRSVGDGVDLWGPGTLVTVSS
VL: DIVMTQTPASVEAAVGGTVTIKCQASQSISSWLAWYQQKPGQPPKLLIYDAFDLASGVPSRFKGSGSGTEFTLTISDLESADAATYYCQSYLYGESGSHGFGFGGGTEVVVR
In the case of B2, the IC50 in experiment [1] amounted to 14.2 ng/mL; in [4] it was 19.2 ng/mL. Besides, the results for the EC50 in [2], in experiment [3] and in [5] were 15.1 ng/mL, 6.2 ng/mL and 88.5 ng/mL, respectively.

B3: P043.A.00047.H08 (protein sample ID 447) (antibody, V domains shown)
VH: QSLEESGGDLVKPGASLTLTCTASGFSFSSDGMCWVRQAPGKGLEWIACIAAGSSGSTYYATWAQGRFTISKSSSTTVTLQMTSLTAADTATYFCAGEDYTGNNYYALWGPGTLVTVSS
VL: AIDMTQTPSPVSAVVGDTVTINCQASENIYSFLAWYQQKPGQPPKLLIYFASKLASGVPSRFKGSGSGTQFTLTISDVHSDDAAIYYCQQTGTYSDADNTFGGGTEVVVK
notes: also called antibody with the Protein sample ID 447
As to B3, the Kd in experiment [6] was found to be 228 pM. Besides, in [6], the kon amounted to 296000 M⁻¹ s⁻¹. Further, the IC50 in experiment [1] worked out at 16.3 ng/mL; in experiment [4] it was 29.9 ng/mL. The EC50 in experiment [3] stood at 9.6 ng/mL; in experiment [5] it was 8.1 ng/mL; in [8], 19.5 ng/mL. Moreover, the dissociation rate constant (koff) in experiment [7] worked out at 6.72e-05 s⁻¹.

B4: P043.A.00017.E07 (protein sample ID 449) (antibody, V domains shown)
VH: QSVEESGGRLVTPGTPLTLTCTVSGFSLSSYAMSWVRQAPGKGLEWIGIISSSGSTYYASWAKGRFTISKTSTTVDLKITSPTTEDTATYFCARAMYPGYSTGVYNIWGPGTLVTVSL
VL: AIQMTQSPSSLAASVGDTVTITCKASEDIGYELNWYQQKLGIAPKLLIYGANTLESGVPSRFSGSGSETDYTLTISSVQAEDAGIYYCQQGYNTPNTFGAGTKVEIK
With B4, the Kd in [6] worked out at 308 pM. Further, in [6], the koff came to 0.000239 s⁻¹. Further, the kon in experiment [6] came out at 780000 M⁻¹ s⁻¹. Besides, the IC50 in experiment [1] turned out to be 3.6 ng/mL; in experiment [4], 53.9 ng/mL; in experiment [9], 50.8 ng/mL. For the same molecule, the EC50 in experiment [3] turned out to be 8.8 ng/mL; in experiment [8], 5.3 ng/mL; in experiment [10], 6.5 ng/mL. For the same molecule, in [11], the binding result is on record as “no binding (tested: 1000 ng/ml)”.

B5: P043.A.00092.C12 (antibody, V domains shown)
VH: QEELKETGGGLVQPGGSLTLSCKASGFDFSSYYMSWVRQAPGKGLEWIGVIYASKGSTDYASWVNGRFTISSDNAQNTVDLQMNSLTAADTATYYCARSKRFYTYGYAGYAYAHYYYGMDLWGPGTLVTVSS
VL: AIQMTQSPSSLAASVGDTVTITCKASEDIGYGLNWYQQKLGIAPKLLIYGADTLESGVPSRFSGSGSETDYTLTISSVQAEDAGIYYCQQGYSTPLTFGAGTKVEIK
notes: also called 472; protein sample ID 472
As for B5, the concentration for half-maximal inhibition (IC50) in experiment [1] is 6.5 ng/mL; in [4] it was 29.9 ng/mL. Besides, the concentration giving a half-maximal response (EC50) in [2] turned out to be 6.8 ng/mL; in experiment [3], 8.3 ng/mL.

B6: P043.A.00097.B02 (antibody, V domains shown)
VH: QELVESGGGLVQAGESLKLSCKASGIDFSSYGISWVRQAPGKGLEWIAYIYPGFGITNYANSVKGRFTISSDNAQNTVFLQMTSLTASDTATYFCTRAYASSSGYYIHYFNLWGPGTLVTVSS
VL: AIQMTQSPSSLAASVGDTVTITCKASEDIGYGLNWYQQKLGIAPKLLIYGANTLESGVPSRFSGSGSETDYTLTISSVQAEDAGIYYCQQAYSTPLTFGAGTKVEIK
B6: the half-maximal inhibitory concentration (IC50) amounted to 5.5 ng/mL in experiment [1] and 41.7 ng/mL in experiment [4]. Further, the 50% effective concentration (EC50) in [2] worked out at 5.4 ng/mL; in experiment [3], 3.4 ng/mL.

B7: P043.A.00020.D06 (protein sample ID 444) (antibody, V domains shown)
VH: QSVEESGGRLVTPGTPLTLTCTVSGFSLSSYAMNWVRQAPGKGLEWIGIISSSGSTYYASWAKGRFTISKTSTTVDLKITSPTTEDTATYFCARVGAGYAGYGYDNYYGMDPWGPGTLVTVSS
VL: AIQMTQSPSSLAASVGDTVTITCKASEDIGYGLNWYQQKLGIAPKLLIYGANTLESGVPSRFSGSGSETDYTLTISSVQAEDAGIYYCQQGYSTPLTFGAGTKVEIK
As to B7, the Kd in [6] was determined as 1360 pM. In addition, the koff in experiment [6] is 0.00032 s⁻¹. Moreover, in [6], the association rate constant (kon) came out at 236000 M⁻¹ s⁻¹. For the same molecule, the concentration for half-maximal inhibition (IC50) in experiment [1] was 7.2 ng/mL; in experiment [4], 60.3 ng/mL; in experiment [9], 65.1 ng/mL. The EC50 in [3] was 7.3 ng/mL; in experiment [8], 5.7 ng/mL; in [10], 8.2 ng/mL. The binding result in experiment [11] was “no binding (tested: 1000 ng/ml)”.

B8: P043.A.00095.D06 (protein sample ID 470) (antibody, V domains shown)
VH: QEQLEESGGDLVKPEGSLTLTCTASGFSFSSNYWICWVRQAPGKGLEWIGCIYIGSGDTYYASWAKGRFTISKTSSTTVTLQMTSLTAADTATYFCARSYTPGSYYNMNLWGPGTLVTVSS
VL: DVVMTQTPSSVSAAVGGTVTINCQASQQISNELSWYQQKSGQPPKLLIYDASDLASGVPSRFKGSGSGTEFTLTISDLESADAATYYCQSTGGASSDGNAFGGGTEVVVK
notes: also called S1 targeting antibody 470; anti-S1-antibody 470
Regarding B8, the half-inhibitory concentration (IC50) in experiment [1] amounted to 12.7 ng/mL; in experiment [4], 19.6 ng/mL. Also, the concentration for a half-maximal effect (EC50) stood at 10.1 ng/mL in experiment [2] and 8.6 ng/mL in [3]. Moreover, the Kd in experiment [12] worked out at 10.4 pM.
